Measured values published in patent US20240391961A1.

T1: 14-3-3ζ nhpSer58 with a FLAG tag at its N-terminus (Homo sapiens (Human)), P63104
T1 chain: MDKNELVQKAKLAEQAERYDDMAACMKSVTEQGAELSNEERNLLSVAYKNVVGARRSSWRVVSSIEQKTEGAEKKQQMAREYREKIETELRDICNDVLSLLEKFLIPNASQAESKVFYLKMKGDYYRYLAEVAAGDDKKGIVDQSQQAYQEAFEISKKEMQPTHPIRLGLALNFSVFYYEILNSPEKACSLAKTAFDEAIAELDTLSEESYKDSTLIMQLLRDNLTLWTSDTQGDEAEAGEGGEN


molecular target: 14-3-3ζ nhpSer58 with a FLAG tag at its N-terminus (Homo sapiens (Human)) (UniProt P63104); conditions: not given

Row | FC [fold] | Binder
1 | 0.202 | WD and tetratricopeptide repeats protein 1 [OS = Homo sapiens] (protein, UniProt Q8N5D0 1-677, looked up) MAKVNITRDLIRRQIKERGALSFERRYHVTDPFIRRLGLEAELQGHSGCVNCLEWNEKGDLLASGSDDQHTIVWDPLHHKKLLSMHTGHTANIFSVKFLPHAGDRILITGAADSKVHVHDLTVKETIHMFGDHTNRVKRIATAPMWPNTFWSAAEDGLIRQYDLRENSKHSEVLIDLTEYCGQLVEAKCLTVNPQDNNCLAVGASGPFVRLYDIRMIHNHRKSMKQSPSAGVHTFCDRQKPLPDGAAQYYVAGHLPVKLPDYNNRLRVLVATYVTFSPNGTELLVNMGGEQVYLFDLTYKQRPYTFLLPRKCHSSGEVQNGKMSTNGVSNGVSNGLHLHSNGFRLPESRGHVSPQVELPPYLERVKQQANEAFACQQWTQAIQLYSKAVQRAPHNAMLYGNRAAAYMKRKWDGDHYDALRDCLKAISLNPCHLKAHFRLARCLFELKYVAEALECLDDFKGKFPEQAHSSACDALGRDITAALFSKNDGEEKKGPGGGAPVRLRSTSRKDSISEDEMVLRERSYDYQFRYCGHCNTTTDIKEANFFGSNAQYIVSGSDDGSFFIWEKETTNLVRVLQGDESIVNCLQPHPSYCFLATSGIDPVVRLWNPRPESEDLTGRVVEDMEGASQANQRRMNADPLEVMLLNMGYRITGLSSGGAGASDDEDSSEGQVQCRPS
2 | 0.12 | serrate RNA effector molecule homolog [OS = Homo sapiens] (protein, UniProt Q9BXP5 2-876, looked up) GDSDDEYDRRRRDKFRRERSDYDRSRERDERRRGDDWNDREWDRGRERRSRGEYRDYDRNRRERFSPPRHELSPPQKRMRRDWDEHSSDPYHSGYEMPYAGGGGGPTYGPPQPWGHPDVHIMQHHVLPIQARLGSIAEIDLGVPPPVMKTFKEFLLSLDDSVDETEAVKRYNDYKLDFRRQQMQDFFLAHKDEEWFRSKYHPDEVGKRRQEARGALQNRLRVFLSLMETGWFDNLLLDIDKADAIVKMLDAAVIKMEGGTENDLRILEQEEEEEQAGKPGEPSKKEEGRAGAGLGDGERKTNDKDEKKEDGKQAENDSSNDDKTKKSEGDGDKEEKKEDSEKEAKKSSKKRNRKHSGDDSFDEGSVSESESESESGQAEEEKEEAEEALKEKEKPKEEEWEKPKDAAGLECKPRPLHKTCSLFMRNIAPNISRAEIISLCKRYPGFMRVALSEPQPERRFFRRGWVTFDRSVNIKEICWNLQNIRLRECELSPGVNRDLTRRVRNINGITQHKQIVRNDIKLAAKLIHTLDDRTQLWASEPGTPPLPTSLPSQNPILKNITDYLIEEVSAEEEELLGSSGGAPPEEPPKEGNPAEINVERDEKLIKVLDKLLLYLRIVHSLDYYNTCEYPNEDEMPNRCGIIHVRGPMPPNRISHGEVLEWQKTFEEKLTPLLSVRESLSEEEAQKMGRKDPEQEVEKFVTSNTQELGKDKWLCPLSGKKFKGPEFVRKHIFNKHAEKIEEVKKEVAFFNNFLTDAKRPALPEIKPAQPPGPAQILPPGLTPGLPYPHQTPQGLMPYGQPRPPILGYGAGAVRPAVPTGGPPYPHAPYGAGRGNYDAFRGQGGYPGKPRNRMVRGDPRAIVEYRDLDAPDDVDFF
3 | 0.194 | transformer-2 protein homolog beta [OS = Homo sapiens] (protein, UniProt P62995 2-288, looked up) SDSGEQNYGERESRSASRSGSAHGSGKSARHTPARSRSKEDSRRSRSKSRSRSESRSRSRRSSRRHYTRSRSRSRSHRRSRSRSYSRDYRRRHSHSHSPMSTRRRHVGNRANPDPNCCLGVFGLSLYTTERDLREVFSKYGPIADVSIVYDQQSRRSRGFAFVYFENVDDAKEAKERANGMELDGRRIRVDFSITKRPHTPTPGIYMGRPTYGSSRRRDYYDRGYDRGYDDRDYYSRSYRGGGGGGGGWRAAQDRDQIYRRRSPSPYYSRGGYRSRSRSRSYSPRRY
4 | 0.177 | GTPase-activating protein and VPS9 domain-containing protein 1 [OS = Homo sapiens] (protein, UniProt Q14C86 1-1478, looked up) MVKLDIHTLAHHLKQERLYVNSEKQLIQRLNADVLKTAEKLYRTAWIAKQQRINLDRLIITSAEASPAECCQHAKILEDTQFVDGYKQLGFQETAYGEFLSRLRENPRLIASSLVAGEKLNQENTQSVIYTVFTSLYGNCIMQEDESYLLQVLRYLIEFELKESDNPRRLLRRGTCAFSILFKLFSEGLFSAKLFLTATLHEPIMQLLVEDEDHLETDPNKLIERFSPSQQEKLFGEKGSDRFRQKVQEMVESNEAKLVALVNKFIGYLKQNTYCFPHSLRWIVSQMYKTLSCVDRLEVGEVRAMCTDLLLACFICPAVVNPEQYGIISDAPINEVARFNLMQVGRLLQQLAMTGSEEGDPRTKSSLGKFDKSCVAAFLDVVIGGRAVETPPLSSVNLLEGLSRTVVYITYSQLITLVNFMKSVMSGDQLREDRMALDNLLANLPPAKPGKSSSLEMTPYNTPQLSPATTPANKKNRLPIATRSRSRTNMLMDLHMDHEGSSQETIQEVQPEEVLVISLGTGPQLTPGMMSENEVLNMQLSDGGQGDVPVDENKLHGKPDKTLRFSLCSDNLEGISEGPSNRSNSVSSLDLEGESVSELGAGPSGSNGVEALQLLEHEQATTQDNLDDKLRKFEIRDMMGLTDDRDISETVSETWSTDVLGSDFDPNIDEDRLQEIAGAAAENMLGSLLCLPGSGSVLLDPCTGSTISETTSEAWSVEVLPSDSEAPDLKQEERLQELESCSGLGSTSDDTDVREVSSRPSTPGLSVVSGISATSEDIPNKIEDLRSECSSDFGGKDSVTSPDMDEITHGAHQLTSPPSQSESLLAMFDPLSSHEGASAVVRPKVHYARPSHPPPDPPILEGAVGGNEARLPNFGSHVLTPAEMEAFKQRHSYPERLVRSRSSDIVSSVRRPMSDPSWNRRPGNEERELPPAAAIGATSLVAAPHSSSSSPSKDSSRGETEERKDSDDEKSDRNRPWWRKRFVSAMPKAPIPFRKKEKQEKDKDDLGPDRFSTLTDDPSPRLSAQAQVAEDILDKYRNAIKRTSPSDGAMANYESTGDNHDRDLSSKLLYHSDKEVMGDGESAHDSPRDEALQNISADDLPDSASQAAHPQDSAFSYRDAKKKLRLALCSADSVAFPVLTHSTRNGLPDHTDPEDNEIVCFLKVQIAEAINLQDKNLMAQLQETMRCVCRFDNRTCRKLLASIAEDYRKRAPYIAYLTRCRQGLQTTQAHLERLLQRVLRDKEVANRYFTTVCVRLLLESKEKKIREFIQDFQKLTAADDKTAQVEDFLQFLYGAMAQDVIWQNASEEQLQDAQLAIERSVMNRIFKLAFYPNQDGDILRDQVLHEHIQRLSKVVTANHRALQIPEVYLREAPWPSAQSEIRTISAYKTPRDKVQCILRMCSTIMNLLSLANEDSVPGADDFVPVLVFVLIKANPPCLLSTVQYISSFYASCLSGEESYWWMQFTAAVEFIKTIDDRK
5 | 0.187 | Histone deacetylase complex subunit SAP18 [OS = Homo sapiens] (protein, UniProt O00422 2-153, looked up) AVESRVTQEEIKKEPEKPIDREKTCPLLLRVFTTNNGRHHRMDEFSRGNVPSSELQIYTWMDATLKELTSLVKEVYPEARKKGTHFNFAIVFTDVKRPGYRVKEIGSTMSGRKGTDDSMTLQSQKFQIGDYLDIAITPPNRAPPPSGRMRPY

Molecular target: T1, 14-3-3ζ nhpSer58 with a FLAG tag at its …
Conditions: remark: other sources report otherwise

Row | FC [fold] | Binder
6 | 0.0526 | 14-3-3 protein sigma [OS = Homo sapiens], P31947 1-248 (protein, UniProt P31947 1-248, looked up) MERASLIQKAKLAEQAERYEDMAAFMKGAVEKGEELSCEERNLLSVAYKNVVGGQRAAWRVLSSIEQKSNEEGSEEKGPEVREYREKVETELQGVCDTVLGLLDSHLIKEAGDAESRVFYLKMKGDYYRYLAEVATGDDKKRIIDSARSAYQEAMDISKKEMPPTNPIRLGLALNFSVFHYEIANSPEEAISLAKTTFDEAMADLHTLSEDSYKDSTLIMQLLRDNLTLWTADNAGEEGGEAPQEPQS
7 | 0.0496 | Serine/arginine-rich splicing factor 10 [OS = Homo sapiens], O75494 1-262 (protein, UniProt O75494 1-262, looked up) MSRYLRPPNTSLFVRNVADDTRSEDLRREFGRYGPIVDVYVPLDFYTRRPRGFAYVQFEDVRDAEDALHNLDRKWICGRQIEIQFAQGDRKTPNQMKAKEGRNVYSSSRYDDYDRYRRSRSRSYERRRSRSRSFDYNYRRSYSPRNSRPTGRPRRSRSHSDNDRFKHRNRSFSRSKSNSRSRSKSQPKKEMKAKSRSRSASHTKTRGTSKTDSKTHYKSGSRYEKESRKKEPPRSKSQSRSQSRSRSKSRSRSWTSPKSSGH
8 | 0.0482 | 14-3-3 protein epsilon [OS = Homo sapiens], P62258 1-255 (protein, UniProt P62258 1-255, looked up) MDDREDLVYQAKLAEQAERYDEMVESMKKVAGMDVELTVEERNLLSVAYKNVIGARRASWRIISSIEQKEENKGGEDKLKMIREYRQMVETELKLICCDILDVLDKHLIPAANTGESKVFYYKMKGDYHRYLAEFATGNDRKEAAENSLVAYKAASDIAMTELPPTHPIRLGLALNFSVFYYEILNSPDRACRLAKAAFDDAIAELDTLSEESYKDSTLIMQLLRDNLTLWTSDMQGDGEEQNKEALQDVEDENQ
9 | 0.0473 | 14-3-3 protein theta [OS = Homo sapiens], P27348 1-245 (protein, UniProt P27348 1-245, looked up) MEKTELIQKAKLAEQAERYDDMATCMKAVTEQGAELSNEERNLLSVAYKNVVGGRRSAWRVISSIEQKTDTSDKKLQLIKDYREKVESELRSICTTVLELLDKYLIANATNPESKVFYLKMKGDYFRYLAEVACGDDRKQTIDNSQGAYQEAFDISKKEMQPTHPIRLGLALNFSVFYYEILNNPELACTLAKTAFDEAIAELDTLNEDSYKDSTLIMQLLRDNLTLWTSDSAGEECDAAEGAEN
